Measurements: US20130064788A1 (ELEVEN BIOTHERAPEUTICS, published 2013)

T1: pre-assembled IL-17RC-IL-17A complex (IL-17A captured by immobilised IL-17RC) (human, UniProt Q8NAC3 21-538; Q16552 25-155, C-terminal biotin on BirA tag)
T1 construct: One receptor and one IL-17A dimer on the SPR chip; also called existing IL-17RC-IL-17A complex
T1 sequence 1: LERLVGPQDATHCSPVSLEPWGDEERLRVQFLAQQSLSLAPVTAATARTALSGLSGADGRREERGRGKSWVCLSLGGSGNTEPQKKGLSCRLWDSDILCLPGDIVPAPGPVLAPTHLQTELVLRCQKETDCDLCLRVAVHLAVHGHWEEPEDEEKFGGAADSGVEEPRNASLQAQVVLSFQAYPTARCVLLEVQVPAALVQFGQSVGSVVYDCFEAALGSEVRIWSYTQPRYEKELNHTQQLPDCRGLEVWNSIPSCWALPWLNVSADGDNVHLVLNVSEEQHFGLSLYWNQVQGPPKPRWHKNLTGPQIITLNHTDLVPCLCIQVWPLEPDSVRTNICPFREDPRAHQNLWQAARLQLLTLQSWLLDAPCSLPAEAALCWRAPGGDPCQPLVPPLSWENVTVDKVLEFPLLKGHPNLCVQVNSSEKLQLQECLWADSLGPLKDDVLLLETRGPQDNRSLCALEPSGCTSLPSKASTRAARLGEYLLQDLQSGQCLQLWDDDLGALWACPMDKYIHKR
T1 sequence 2: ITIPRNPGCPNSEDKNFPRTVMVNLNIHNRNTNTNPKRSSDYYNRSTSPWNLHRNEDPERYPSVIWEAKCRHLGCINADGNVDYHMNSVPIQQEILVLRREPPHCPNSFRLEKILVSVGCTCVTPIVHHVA

T2: human IL-17RA extracellular domain (ECD) (human, UniProt Q96F46 32-317)
T2 construct: For SPR it was made with and without a C-terminal BirA ligase tag: the biotinylated form was immobilised and the other was injected; also called IL-17RA ECD; IL-17RA ectodomain
T2 sequence: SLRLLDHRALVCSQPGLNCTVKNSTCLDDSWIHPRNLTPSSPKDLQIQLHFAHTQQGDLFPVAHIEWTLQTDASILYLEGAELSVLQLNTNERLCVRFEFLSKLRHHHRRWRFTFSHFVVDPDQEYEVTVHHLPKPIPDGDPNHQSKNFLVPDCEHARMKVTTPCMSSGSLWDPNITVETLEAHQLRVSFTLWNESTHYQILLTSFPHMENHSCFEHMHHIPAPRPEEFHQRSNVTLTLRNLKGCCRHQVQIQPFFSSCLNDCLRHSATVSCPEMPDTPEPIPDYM

T3: pre-assembled IL-17RB-IL-25 complex (IL-25 captured by immobilised IL-17RB) (human, UniProt Q9NRM6 18-292; Q9H293 33-177, C-terminal biotin on BirA tag)
T3 construct: One receptor and one IL-25 dimer on the SPR chip
T3 sequence 1: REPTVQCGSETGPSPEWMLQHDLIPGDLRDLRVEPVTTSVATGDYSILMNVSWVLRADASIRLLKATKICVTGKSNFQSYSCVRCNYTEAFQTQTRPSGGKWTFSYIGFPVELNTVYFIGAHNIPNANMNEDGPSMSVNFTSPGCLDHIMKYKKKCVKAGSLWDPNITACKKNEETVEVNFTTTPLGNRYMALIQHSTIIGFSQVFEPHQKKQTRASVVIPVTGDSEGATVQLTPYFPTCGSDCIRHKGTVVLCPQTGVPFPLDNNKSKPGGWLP
T3 sequence 2: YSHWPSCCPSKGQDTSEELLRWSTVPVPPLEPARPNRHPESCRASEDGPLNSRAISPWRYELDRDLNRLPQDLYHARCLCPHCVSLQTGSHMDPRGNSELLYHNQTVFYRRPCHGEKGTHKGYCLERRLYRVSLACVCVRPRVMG

B1: IL-17RC extracellular domain (receptor)
chain: T1 sequence 1
notes: Expressed in 293S GnTI- cells with and without a C-terminal BirA tag; An additional C-terminal Fc tag was cleaved by 3C protease
B2: IL-17F homodimer (ligand, not shown: small tags and cut ends)
chain: RKIPKVGHTFFQKPESCPPVPGGSMKLDIGIINENQRVSMSRNIESRSTSPWNYTVTWDPNRYPSEVVQAQCRNLGCINAQGKEDISMNSVPIQQETLVVRRKHQGCSVSFQLEKVLVTVGCTCVTPVIHHVQ
notes: Printed as full length IL-17F with a C-terminal hexa-His tag, secreted by High Five insect cells; It is a disulfide-linked homodimer; also called IL-17F/F
B3: mutant single-chain IL-17A (R47E, S65K subunit - (G4S)6 linker - N89A, C-terminally truncated subunit - His tag) (designed binder)
chain: GITIPRNPGCPNSEDKNFPRTVMVNLNIHNRNTNTNPKRSSDYYNESTSPWNLHRNEDPERYPKVIWEAKCRHLGCINADGNVDYHMNSVPIQQEILVLRREPPHCPNSFRLEKILVSVGCTCVTPIVHHVASGGGGSGGGGSGGGGSGGGGSGGGGSGGGGSGITIPRNPGCPNSEDKNFPRTVMVNLNIHNRNTNTNPKRSSDYYNRSTSPWNLHRNEDPERYPSVIWEAKCRHLGCINADGNVDYHMASVPIQQEILVLRREPPHCPNSFRLEKILVSVGCTCVTPASHHHHHH
notes: also called sc17A-DN; mutant single-chain IL-17A protein
B4: IL-25 (IL-17E) (ligand)
chain: T3 sequence 2
notes: Expressed by High Five cells with a C-terminal hexa-His tag; It is treated as a dimeric cytokine in the SPR scheme; not shown: C-terminal hexa-His tag
B5: IL-17RB extracellular domain (receptor)
chain: T3 sequence 1
notes: Expressed with and without a C-terminal BirA tag

What was measured:
[1] = target: T1, pre-assembled IL-17RC-IL-17A complex …; assay: SPR; second receptor injected over IL-17A captured by immobilised IL-17RC
From the text: (§1) Whilst others have reported the binding affinities of IL-17RA and IL-17RC for IL-17A and IL-17F (7, 22), we considered it pertinent to assess the binding affinity of the second receptor-binding site. The strategy was to immobilize one receptor on the SPR chip at a low coupling density in order to minimize possible homo-dimerization (e.g. cross-linking) of the receptors on the chip. The dimeric IL-17 cytokine was then captured by this receptor so that each receptor would be bound to one dimeric IL-17 ligand, leaving an exposed and accessible second receptor-binding site. The second receptor was subsequently passed over the preformed receptor-cytokine complexes to measure the affinity of the second receptor-binding event. In this fashion, the complex was assembled in a stepwise manner and each of the binding affinities was measured (FIG. 3).
(§2) Binding affinities were calculated via surface plasmon resonance (SPR) on a BIACORE® T100 (GE Healthcare). C-terminally biotinylated IL-17 receptors were coupled to immobilized streptavidin on either an SA or CM4-sensor chip (GE Healthcare). An irrelevant, biotinylated protein was captured at equivalent immobilization densities to control flow cells. […] Data was analyzed using BIACORE® T100 evaluation software Version 2.0 (GE Healthcare). […]

[2] = target: T2, human IL-17RA extracellular domain (ECD); assay: SPR, Biacore T100; biotinylated receptor on streptavidin chip, cytokine injected
From the text: as §1, §2

[3] = target: B1; assay: as above
From the text: as §1, §2

[4] = target: T2, human IL-17RA extracellular domain (ECD); assay: plate binding assay to the soluble extracellular domain of IL-17RA
[5] = target: T2, human IL-17RA extracellular domain (ECD); assay: SPR, Biacore T100
Method: (§3) IL-17RA has been implicated in IL-17E (also known as IL-25) signaling together with IL-17RB (23). IL-25 promotes Th2 inflammatory responses and shares approximately ˜20% identity with IL-17A and IL-17F. […] We hypothesized that IL-17RA may only bind IL-25 once IL-25 is captured by IL-17RB. To test this hypothesis, we immobilized IL-17RB on an SPR chip, captured IL-25 and measured the affinity of IL-17RA for the IL-17RB-IL-25 complex. […] At concentrations up to 50 μM, no interaction could be observed between IL-17RA and IL-25, or between the IL-17RB-IL-25 complex and a second IL-17RB molecule.
as §2, with “cells. To measure the second receptor binding interaction, the cytokine was first captured to the immobilized receptor, followed by the second receptor injection. Low coupling densities (200-400 RU) and excess cytokine concentrations were used to optimize the number of cytokine homodimers bound to a single receptor.” for “cells.”

[6] = target: T3, pre-assembled IL-17RB-IL-25 complex …; assay: SPR, Biacore T100; second receptor injected over IL-25 captured by immobilised IL-17RB
Method: as §3
as §2, with “cells. To measure the second receptor binding interaction, the cytokine was first captured to the immobilized receptor, followed by the second receptor injection. Low coupling densities (200-400 RU) and excess cytokine concentrations were used to optimize the number of cytokine homodimers bound to a single receptor.” for “cells.”

Binder B1 has a Kd [1] of 8000 nM.

Binder B2 has a Kd [2] of 292 nM and a Kd [3] of 4.4 nM.

In the case of B3, the “affinity relative to wild-type IL-17A (factor)” value [4] is reported as at most 4 fold.

B4: no binding (tested: up to 50 µM) [5].

B5: no binding (tested: up to 50 µM) [6].
